The target in this assay is T1, mCerulean-tagged GIPC (human, UniProt O14908 1-333).
T1 sequence (looked up): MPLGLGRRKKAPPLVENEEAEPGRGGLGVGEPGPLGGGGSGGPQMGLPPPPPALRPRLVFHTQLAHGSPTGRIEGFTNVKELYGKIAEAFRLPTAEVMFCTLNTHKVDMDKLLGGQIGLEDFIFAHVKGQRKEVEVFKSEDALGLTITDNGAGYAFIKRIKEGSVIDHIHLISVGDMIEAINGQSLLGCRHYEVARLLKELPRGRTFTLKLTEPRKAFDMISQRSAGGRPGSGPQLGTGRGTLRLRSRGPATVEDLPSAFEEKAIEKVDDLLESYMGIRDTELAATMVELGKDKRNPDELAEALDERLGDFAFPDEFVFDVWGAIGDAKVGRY
The experiment in a line: FRET or BRET.

Where no end group is shown, it is not given here.

For the molecule QLPERAFRALPSGSGPGEVPTSRGLSSGTLPGPGNEASRELESYC (domain or fragment, human, UniProt P48546 422-466, looked up, also: mCitrine-tagged) [mCitrine-tagged GIPR C-tail, wild-type], the binding result is on record as “binds”.

Source of the values: paper doi:10.1101/2025.08.22.671816 (bioRxiv, 2025).
